In assay [1] the target is T1, Human GPA33 (recombinant protein, Novoprotein) (human, UniProt Q99795 22-235).
T1 construct: Bought recombinant protein immobilized on a CM5 chip; also called GPA33 antigen; tumor antigen GPA33
T1 sequence: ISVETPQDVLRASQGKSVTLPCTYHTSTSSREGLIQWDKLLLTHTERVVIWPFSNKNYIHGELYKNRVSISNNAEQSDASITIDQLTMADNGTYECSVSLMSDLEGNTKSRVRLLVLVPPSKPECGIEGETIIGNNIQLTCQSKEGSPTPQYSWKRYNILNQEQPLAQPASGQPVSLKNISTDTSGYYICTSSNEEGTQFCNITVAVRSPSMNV
The assay is described as follows: SPR (Biacore), human GPA33 immobilised on the chip; KD relative to that of TC170. The gist of the method: (§1)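 Surface plasmon resonance on a Biacore system with immobilised recombinant human GPA33 (Novoprotein) was used to determine KD by kinetic fitting. The values given are each KD divided by the KD of a reference molecule.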
For orientation: In SPR one partner is held on a chip, and binding of the other changes the refractive index at the surface.

For assay [2], the target named is T2, Human GPA33 on GPA33+ colorectal cancer cell lines (Colo 205, LS 174T, SW 1222) (human, UniProt Q99795 22-319).
T2 construct: Endogenous GPA33 on human colorectal cancer cell lines; also called surface human GPA33; GPA33+ tumor cell lines
T2 sequence: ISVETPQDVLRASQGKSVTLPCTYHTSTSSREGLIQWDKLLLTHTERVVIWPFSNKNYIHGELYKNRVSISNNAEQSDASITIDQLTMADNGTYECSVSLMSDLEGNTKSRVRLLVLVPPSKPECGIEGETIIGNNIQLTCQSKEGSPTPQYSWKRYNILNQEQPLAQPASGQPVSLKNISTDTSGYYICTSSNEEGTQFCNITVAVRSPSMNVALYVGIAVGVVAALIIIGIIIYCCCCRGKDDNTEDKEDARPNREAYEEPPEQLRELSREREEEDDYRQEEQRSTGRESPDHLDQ
The assay is described as follows: FACS binding to SW1222 cells (GPA33+). For orientation: In flow cytometry, cells or beads pass a laser one at a time.

Assay [3] has as its target T2, Human GPA33 on GPA33+ colorectal cancer …. Description: FACS binding to Colo205 cells (GPA33+); the text prints 2.46 nM for this pair.
For assay [4] the target is unchanged. The assay is described as follows: flow cytometry, LS 174T cells.
Assay [5] shares this target. The assay is described as follows: flow cytometry, Colo 205 cells; Colo 205 cells.
In assay [6] the target is T1, Human GPA33 (recombinant protein, …). Description: SPR. In outline: as §1
Assay [7] has as its target T2, Human GPA33 on GPA33+ colorectal cancer …. The assay is described as follows: FACS binding to Colo205 cells (GPA33+).
Assay [8] has the same target. The assay is described as follows: FACS titration on Colo205 cells, geometric mean MFI (the text prints 2.46 nM and calls it IC50).
In assay [9] the target is T1, Human GPA33 (recombinant protein, …). Description: SPR (Biacore), human GPA33 immobilized on CM5 chip, two-state fit, kd1. In outline:
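The off-rate (kd1) was measured by surface plasmon resonance on a Biacore T100, with recombinant human GPA33 (Novoprotein) immobilised on a CM5 chip. Antibodies were flowed over at five concentrations, 2-fold serial dilutions starting at 20 nM. The parent IgG1 was run at 25° C and bispecific formats at 25° C and 37° C. Sensorgrams were fitted with a two-state binding model to derive the kinetic parameters.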

The target is the same in assay [10]. The assay is described as follows: SPR (Biacore), human GPA33 immobilized on CM5 chip, two-state fit. The gist of the method:
(§2)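 GPA33 immobilized on CM5 chip; five 2-fold dilutions of huA33 IgG1 or huA33 bispecifics from 20 nM injected. Kinetics measured at 25 °C for huA33, at both 25 °C and 37 °C for bispecifics; sensorgrams fitted to a two-state binding model.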

Assay [11] concerns the target T2, Human GPA33 on GPA33+ colorectal cancer …. Description: flow cytometry, SW 1222 cells.
The target is the same in assay [12]. Description: FACS binding to LS174T cells (GPA33+).
Assay [13] addresses T1, Human GPA33 (recombinant protein, …). Description: SPR (Biacore), human GPA33 immobilized on CM5 chip, two-state fit, ka1. In outline:
as §2

B1: TC159 (bispecific antibody)
chain: EVQLVESGGGLVKPGGSLRLSCAASGFAFSTYDMSWVRQAPGKRLEWVATISSGGSYTYYLDSVKGRFTISRDNAKNSLYLQMNSLRAEDTAVYYCAPTTVVPFAYWGQGTLVTVSSGGGGSGGGGSGGGGSGGGGSGGGGSGGGGSDIQMTQSQSSLSTSVGDRVTITCKASQNVRTVVAWYQQKPGKSPKTLIYLASNRHTGVPSRFSGSGSGTEFTLTISNVQPEDFADYFCLQHWSYPLTFGSGTKLEIKRGGGGSGGGGSGGGGSGGGGSHVQLVESGGGLVQPGGSLRLSCAASGFSLTDYGVHWVRQAPGKGLEWLGVIWSGGGTAYNTALISRFTISRDNSKNTLYLQMNSLRAEDTAVYYCARRGSYPYNYFDAWGCGTLVTVSSGGGGSGGGGSGGGGSGGGGSGGGGSGGGGSQAVVTQEPSLTVSPGGTVTLTCGSSTGAVTASNYANWVQQKPGQCPRGLIGGHNNRPPGVPARFSGSLLGGKAALTLLGAQPEDEAEYYCALWYSDHWVIGGGTKLTVLGTPLGDTTHTSGKPLDGEYFTLQIRGRERFEMFRELNEALELKDAQAGKEPGGSGGAPHHHHHH
notes: Previously described GPA33xDOTA SADA clone whose GPA33 scFv comes from another clone; Carries the p53 SADA (tetramerization) domain
As to B1, in assay [1], the “Fold change of KD (relative to TC170, lower is better)” value turned out to be 1.4. In addition, the figures for the “fold change of binding EC50 (relative to TC170, lower is better)” value in assay [2], in assay [7] and in assay [12] were 0.24, 3.34 and 3.94, respectively. Further, the EC50 (in general, the concentration giving half of the maximal effect) is 2.47 nM in [3], 2.46 nM in [5] and 2.47 nM in assay [8]. Besides, the results for the 50% inhibitory concentration (IC50) in assay [4] and in [11] were 1.22 nM and 0.4 nM, respectively. Also, the “fold higher affinity than TC160” value in assay [6] stood at 3 fold. The off-rate (koff) (in general, the rate constant with which the complex falls apart) in assay [9] was 0.00181 s⁻¹. Besides, the Kd (commonly the equilibrium constant for the complex coming apart) in [10] is 0.0216 nM. Further, the ka2 in [10] came out at 0.00613 s⁻¹. Also, the kd2 in [10] is 0.000315 s⁻¹. The on-rate constant (kon) (usually a measure of how fast the partners come together) in [13] stood at 4.09e+06 M⁻¹ s⁻¹.
